Here are results for four molecules from US20090137485A1, “Antigens Targeted by Pathogenic T Cells in Type 1 Diabetes and Uses Thereof” (priority 2005, published 2009).

In one assay the target is HLA-A2 molecule (Homo sapiens, UniProt P04439, D140Y/D185E/D98H/E176V/E277Q/G131W/G231S/I119V/I121R/I166T/I218V/L300P/L318F/N151K/N90K/P208A/P217A/Q86G/Q94H/R138H/R169H/T345S). To be noted: from the literature (Panagiotopoulos et al., 2003; Regner et al., 1996); cited from earlier work.
In assay [1] the target is T1, human HLA-A2 MHC class I molecule (HLA-A*0201) on T2 cells (human).
T1 construct: Surface HLA-A2 was read with FITC anti-HLA-A2 mAb BB7.2; also called HLA-A2.1
Nature of the assay: descriptor in the legend of an IFN-gamma ELISPOT figure (T2 cells as APC).

Assay [2] concerns the target T1, human HLA-A2 MHC class I molecule …. Nature of the assay: peptide library screen; HLA-A2 restriction on T2 cells.

KLQVFLIVL [PreproIAPP5-13]: the “binding to HLA-A2” value with HLA-A2 molecule was “HLA-A2-binding”.
With ALIPYCVHM (also called murine IGRP 337-345) [mIGRP337-345 (ALIPYCVHM)], the binding result in assay [1] is given as “binds”.
Consider FGIDLLWSV (also called murine IGRP 228-236) [mIGRP228-236 (FGIDLLWSV)], for which the binding result in assay [2] is “binds”.
Take VLFGLGFAI (also called murine IGRP 265-273) [mIGRP265-273 (VLFGLGFAI)]: the binding result in assay [1] is on record as “binds”.
